According to article PMC4598844, “BAP1 promotes breast cancer cell proliferation and metastasis by deubiquitinating KLF5” (Nature Communications, 2015):

Target: T1, GST-BAP1, purified recombinant (human, UniProt Q92560 1-729)
T1 construct: BRCA1-associated protein 1 (BAP1), human, wild type, cloned from MCF10A cells into pGEX-6p-1; also called purified GST-BAP1; source: E. coli BL21 (DE3), purified (glutathione sepharose 4B)
T1 sequence (looked up): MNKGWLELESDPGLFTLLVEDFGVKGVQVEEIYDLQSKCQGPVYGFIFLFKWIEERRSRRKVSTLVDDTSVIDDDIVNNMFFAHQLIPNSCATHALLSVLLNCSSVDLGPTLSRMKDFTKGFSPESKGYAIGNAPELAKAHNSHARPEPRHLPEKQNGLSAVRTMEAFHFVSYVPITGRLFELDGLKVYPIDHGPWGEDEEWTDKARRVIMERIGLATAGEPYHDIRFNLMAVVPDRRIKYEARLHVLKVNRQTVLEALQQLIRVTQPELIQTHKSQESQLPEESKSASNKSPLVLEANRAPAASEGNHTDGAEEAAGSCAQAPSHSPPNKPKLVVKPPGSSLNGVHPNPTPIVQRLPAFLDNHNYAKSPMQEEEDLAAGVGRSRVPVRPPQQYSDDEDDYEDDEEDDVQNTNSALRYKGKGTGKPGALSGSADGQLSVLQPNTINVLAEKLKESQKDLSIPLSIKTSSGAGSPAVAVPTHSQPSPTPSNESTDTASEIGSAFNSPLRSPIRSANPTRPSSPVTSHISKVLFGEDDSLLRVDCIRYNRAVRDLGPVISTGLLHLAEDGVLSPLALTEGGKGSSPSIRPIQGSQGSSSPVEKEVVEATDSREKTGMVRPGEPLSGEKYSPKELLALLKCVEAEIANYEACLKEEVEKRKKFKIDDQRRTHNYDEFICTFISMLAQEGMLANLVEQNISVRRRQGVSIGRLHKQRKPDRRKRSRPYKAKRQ
Test: pull-down; purified recombinant GST-BAP1 (and GST) pulled down with glutathione beads; KLF5-6 × His detected by WB
Conditions: both partners purified

binding result: binds
B1: KLF5-6 × His, purified recombinant (natural protein)
chain: not shown
notes: Krüppel-like zinc-finger transcription factor 5 (KLF5), subcloned into the pET28-3C vector; The tag is printed after the protein's name; not repeated for this construct; source: E. coli BL21 (DE3), purified (Ni-NTA)
